Test results from publication PMC3776838, “Detection of Phospho-Sites Generated by Protein Kinase CK2 in CFTR: Mechanistic Aspects of Thr1471 Phosphorylation” (PLoS ONE, 2013).

Molecular target: Human CK2 α2β2-holoenzyme (human) (UniProt P68400)
Sequence (P68400 whole entry, chain 1 of 2): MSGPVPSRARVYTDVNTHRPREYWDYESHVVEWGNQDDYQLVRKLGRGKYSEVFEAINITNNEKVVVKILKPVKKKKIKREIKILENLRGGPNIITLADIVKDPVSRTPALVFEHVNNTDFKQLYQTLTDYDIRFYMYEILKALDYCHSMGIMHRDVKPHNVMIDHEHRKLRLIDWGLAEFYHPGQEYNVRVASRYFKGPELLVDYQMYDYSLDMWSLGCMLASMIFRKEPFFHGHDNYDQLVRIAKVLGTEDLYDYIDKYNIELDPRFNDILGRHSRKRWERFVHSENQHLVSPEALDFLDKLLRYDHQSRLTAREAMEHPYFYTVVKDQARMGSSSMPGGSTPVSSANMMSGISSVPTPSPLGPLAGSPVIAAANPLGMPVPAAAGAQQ
Sequence (P67870 whole entry, chain 2 of 2, further chain): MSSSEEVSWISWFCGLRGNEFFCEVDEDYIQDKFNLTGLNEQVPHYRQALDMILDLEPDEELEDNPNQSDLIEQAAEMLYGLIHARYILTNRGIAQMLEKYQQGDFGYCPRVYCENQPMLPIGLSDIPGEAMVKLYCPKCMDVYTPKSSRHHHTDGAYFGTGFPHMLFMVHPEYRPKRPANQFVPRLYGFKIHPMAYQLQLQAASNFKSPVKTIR

Sequence of 42-mer peptide reproducing the C-terminal tail of human CFTR (residues 1439–1480) (P13569 1439-1480): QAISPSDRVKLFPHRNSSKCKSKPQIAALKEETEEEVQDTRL

Km of phosphorylation of the 42-mer by CK2 holoenzyme (33P incorporation, Figure 3): 1.4 µM
Substance: 42-mer peptide reproducing the C-terminal tail of human CFTR (residues 1439–1480) (from UniProt P13569 1439-1480) (domain or fragment)
